In this assay the target is Flag-tagged PKMζ (protein kinase M ζ) (human) (UniProt Q05513). The assay can be described thus: co-IP.
Chain of UniProt Q05513 (Q05513 184-592): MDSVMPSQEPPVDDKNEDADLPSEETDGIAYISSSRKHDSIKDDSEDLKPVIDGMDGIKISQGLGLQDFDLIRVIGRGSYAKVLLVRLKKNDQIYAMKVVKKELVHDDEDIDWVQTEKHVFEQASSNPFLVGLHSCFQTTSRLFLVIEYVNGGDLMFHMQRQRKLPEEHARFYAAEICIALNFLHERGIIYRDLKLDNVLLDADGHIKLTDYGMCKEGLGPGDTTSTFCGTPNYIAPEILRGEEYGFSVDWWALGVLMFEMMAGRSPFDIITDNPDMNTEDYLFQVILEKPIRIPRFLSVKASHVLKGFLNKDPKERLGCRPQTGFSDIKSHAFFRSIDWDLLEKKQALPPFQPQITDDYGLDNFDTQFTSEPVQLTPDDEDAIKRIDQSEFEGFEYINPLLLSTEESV

As a reminder, the IC50 is the point on the concentration scale where inhibition reaches its midpoint. Lower therefore signals higher potency. As for “synthetic biotin-labeled peptide containing the binding motif (KIBRA position 948-978)”, the 50% inhibitory concentration (IC50) was 60 nM.

Source of the values: article PMC3947452.
